The target of data set [1] is SspB-Gle1^152–360 fusion protein (E. coli | human) (UniProt Q53GS7). In words: SEC-MALS; ACCORD (forced dimerization by SspB); Superose 6 10/300 GL; 20 mM HEPES (pH 7.6), 200 mM NaCl, 5% glycerol, 0.5 mM TCEP, 0.05% azide.
Data set [2] concerns the molecule itself. In words: SEC; S200 size-exclusion chromatography; 20 mM HEPES, pH 7.5, 200 mM NaCl, 0.5 mM TCEP, 10% glycerol; MBP as a size reference. For orientation: Size exclusion chromatography separates by hydrodynamic size, large species first.
Data set [3] concerns the molecule itself. In words: native gel or EMSA; 4–15% acrylamide gradient native PAGE, 150 V for 90 min, Coomassie staining. For orientation: Mobility shift assays separate free from complexed probe on a gel.

With “SspB-Gle1^152–360 fusion protein (from UniProt Q53GS7 152-360)”, the stoichiometry N in data set [1] is 2.

B1: MBP-Gle1^1–152 (domain or fragment, human, UniProt Q53GS7 1-152, looked up)
chain: MPSEGRCWETLKALRSSDKGRLCYYRDWLLRREDVLEECMSLPKLSSYSGWVVEHVLPHMQENQPLSETSPSSTSASALDQPSFVPKSPDASSAFSPASPATPNGTKGKDESQHTESMVLQSSRGIKVEGCVRMYELVHRMKGTEGLRLWQE
notes: source: E. coli Rosetta, purified (amylose resin eluted with maltose, ion exchange); not shown: MBP, N-terminal, kept
As to B1, in data set [2], the binding result was “binds”.

B2: Gle1^152–360 (domain or fragment, human, UniProt Q53GS7 152-360, looked up)
chain: EEQERKVQALSEMASEQLKRFDEWKELKQHKEFQDLREVMEKSSREALGHQEKLKAEHRHRAKILNLKLREAEQQRVKQAEQERLRKEEGQIRLRALYALQEEMLQLSQQLDASEQHKALLKVDLAAFQTRGNQLCSLISGIIRASSESSYPTAESQAEAERALREMRDLLMNLGQEITRACEDKRRQDEEEAQVKLQEAQMQQGPEAH
notes: also called coiled-coil domain; source: E. coli Rosetta, purified (amylose resin, on-column cleavage, 30% ammonium sulfate precipitation, S200 SEC)
With B2, the binding result in data set [3] is “binds”.

B3: Gle1^(1–360 8D) (domain or fragment, human, UniProt Q53GS7 1-360, looked up)
chain: MPSEGRCWETLKALRSSDKGRLCYYRDWLLRREDVLEECMSLPKLSSYSGWVVEHVLPHMQENQPLSETSPSSTSASALDQPSFVPKSPDASSAFSPASPATPNGTKGKDESQHTESMVLQSSRGIKVEGCVRMYELVHRMKGTEGLRLWQEEQERKVQALSEMASEQLKRFDEWKELKQHKEFQDLREVMEKSSREALGHQEKLKAEHRHRAKILNLKLREAEQQRVKQAEQERLRKEEGQIRLRADYADQEEMLQDSQQDDASEQHKALLKVDLAAFQTRGNQLCSLISGIIRASSESSYPTAESQAEAERADREDRDLDMNDGQEITRACEDKRRQDEEEAQVKLQEAQMQQGPEAH
notes: source: E. coli Rosetta, purified
Regarding B3, the binding result in data set [2] is on record as “binds”.

B4: Gle1^1–360 (domain or fragment, human, UniProt Q53GS7 1-360, looked up)
chain: MPSEGRCWETLKALRSSDKGRLCYYRDWLLRREDVLEECMSLPKLSSYSGWVVEHVLPHMQENQPLSETSPSSTSASALDQPSFVPKSPDASSAFSPASPATPNGTKGKDESQHTESMVLQSSRGIKVEGCVRMYELVHRMKGTEGLRLWQEEQERKVQALSEMASEQLKRFDEWKELKQHKEFQDLREVMEKSSREALGHQEKLKAEHRHRAKILNLKLREAEQQRVKQAEQERLRKEEGQIRLRALYALQEEMLQLSQQLDASEQHKALLKVDLAAFQTRGNQLCSLISGIIRASSESSYPTAESQAEAERALREMRDLLMNLGQEITRACEDKRRQDEEEAQVKLQEAQMQQGPEAH
notes: human Gle1, N-terminal region, residues 1-360; also called WT Gle1^1–360; Gle1 N-terminal region; source: E. coli Rosetta, purified (amylose resin, on-column cleavage, S200 SEC)
Turning to B4, the binding result in data set [2] is “binds”.

B5: Gle1^(1–360 Δ45–54) (domain or fragment, human, UniProt Q53GS7 1-360, looked up)
chain: MPSEGRCWETLKALRSSDKGRLCYYRDWLLRREDVLEECMSLPKHVLPHMQENQPLSETSPSSTSASALDQPSFVPKSPDASSAFSPASPATPNGTKGKDESQHTESMVLQSSRGIKVEGCVRMYELVHRMKGTEGLRLWQEEQERKVQALSEMASEQLKRFDEWKELKQHKEFQDLREVMEKSSREALGHQEKLKAEHRHRAKILNLKLREAEQQRVKQAEQERLRKEEGQIRLRALYALQEEMLQLSQQLDASEQHKALLKVDLAAFQTRGNQLCSLISGIIRASSESSYPTAESQAEAERALREMRDLLMNLGQEITRACEDKRRQDEEEAQVKLQEAQMQQGPEAH
notes: also called Gle1^(1–360 45–54); source: E. coli Rosetta, purified (amylose resin, on-column cleavage, S200 SEC)
For B5, the binding result in data set [2] was “binds”.

Broadly, the stoichiometry N is a count of units in the complex or per binding partner.

Values taken from paper PMC7864074, “Functions of Gle1 are governed by two distinct modes of self-association” (The Journal of Biological Chemistry, 2020).
